Test results: paper PMC2945256

Target: Elongation Factor 1 alpha (EF1α), endogenous in rat liver lysosomes (rat (endogenous in rat liver)) (UniProt P62630)
Assay: co-IP

Sequence of UniProt P62630 (P62630 whole entry): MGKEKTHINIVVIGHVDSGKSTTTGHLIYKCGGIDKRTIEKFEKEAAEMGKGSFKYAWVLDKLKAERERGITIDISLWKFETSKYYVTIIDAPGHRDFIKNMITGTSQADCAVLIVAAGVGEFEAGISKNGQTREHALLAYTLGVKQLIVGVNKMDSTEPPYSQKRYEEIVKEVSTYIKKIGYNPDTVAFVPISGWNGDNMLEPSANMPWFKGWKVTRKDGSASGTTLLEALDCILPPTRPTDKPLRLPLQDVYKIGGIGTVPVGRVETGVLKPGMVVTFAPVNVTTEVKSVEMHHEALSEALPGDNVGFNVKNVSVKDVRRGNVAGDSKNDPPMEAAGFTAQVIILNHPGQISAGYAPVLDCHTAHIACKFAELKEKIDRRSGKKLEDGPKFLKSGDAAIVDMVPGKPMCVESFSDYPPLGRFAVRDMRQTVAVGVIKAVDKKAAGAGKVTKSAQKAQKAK

Substance: glial fibrillary acidic protein (GFAP), endogenous in rat liver lysosomes (from UniProt P47819 1-430) (natural protein)
- decrease of GFAP co-immunoprecipitated with EF1α upon addition of GTP: 47.2%
